B1: actin-binding domain 2 of human plastin 2, unlabeled (domain or fragment)
chain: TREERTFRNWMNSLGVNPRVNHLYSDLSDALVIFQLYEKIKVPVDWNRVNKPPYPKLGGNMKKLENCNYAVELGKNQAKFSLVGIGGQDLNEGNRTLTLALIWQLMRRYTLNILEEIGGGQKVNDDIIVNWVNETLREAKKSSSISSFKDPKISTSLPVLDLIDAIQPGSINYDLLKTENLNDDEKLNNAKYAISMARKIGARVYALPEDLVEVNPKMVMTVFACLMGKGMKRV
B2: fluorescein-maleimide-labeled actin-binding domain 2 of human plastin 2 (domain or fragment, UniProt P13796 394-627, looked up)
chain: B1 chain
modifications: labeled with fluorescein-5-maleimide (FM); labeled residue not stated

Legend:
[1] = biological target: F-actin (skeletal muscle actin, polymerised) ( (rabbit or chicken skeletal …, UniProt P68135 1-377)); experiment: fluorescence polarisation
[2] = biological target: T1, actin-binding domain 1 of human plastin 2 (human, UniProt P13796 120-375); experiment: fluorescence polarisation
T1 sequence (looked up): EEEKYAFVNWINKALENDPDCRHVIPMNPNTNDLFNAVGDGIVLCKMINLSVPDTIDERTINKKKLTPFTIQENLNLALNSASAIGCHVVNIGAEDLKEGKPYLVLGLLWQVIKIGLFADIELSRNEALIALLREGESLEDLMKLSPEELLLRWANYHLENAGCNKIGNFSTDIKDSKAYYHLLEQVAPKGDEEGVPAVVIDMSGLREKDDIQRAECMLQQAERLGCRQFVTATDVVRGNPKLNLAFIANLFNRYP

| Kd [1] | Kd [2] | Binder |
| --- | --- | --- |
| ~4 nM |  | B1 |
|  | 11.4 nM | B2 |

Source: PMC9358775 (Nature structural & molecular biology, 2022)
